In the supplement of paper PMC7125110:
± gives the standard error. Fewer inactive variants are shown than the library holds.

B1: glmS ribozyme (parent)
chain: AUAAAAGCGCCAGAACUACAGAAAUGUAGUUGACGAGGAGGAGGUUUAUCGAAUUUUCGGCGGAUGCCUCCAAA

Experiments:
Conditions in all cases: with glucosamine-6-phosphate
glucosamine-6-phosphate [1] = variants of: B1; experiment: self-cleavage kobs at 640 uM GlcN6P; higher = faster cleavage; RNA array
Summary of the method: (§1)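 kobs was derived by fitting per-tile medians to one- or two-exponential decays after normalising signals to baseline and to non-cleaving reference variants. Those signals came from barcoded ribozyme variants transcribed in situ by E. coli RNA polymerase on sequenced MiSeq chips, followed through a hybridised Cy3 probe at 37 °C and imaged over ~14 h. Glucosamine-6-phosphate (40 μM to 10 mM) in HEPES/KCl/Mg(OAc)2 buffer was flowed in. Weighted Michaelis–Menten fits across concentrations then gave kcat and KM.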

glucosamine-6-phosphate [2] = variants of: B1; experiment: self-cleavage kobs at 2500 uM GlcN6P; higher = faster cleavage; RNA array
Summary of the method: as §1

glucosamine-6-phosphate [3] = variants of: B1; experiment: self-cleavage kobs at 10000 uM GlcN6P; higher = faster cleavage; RNA array
Summary of the method: as §1

Variant: A6C A12C A39C C67U
- self-cleavage kobs at 640 uM GlcN6P (glucosamine-6-phosphate [1]): < 1e-05 s⁻¹
- self-cleavage kobs at 2500 uM GlcN6P (glucosamine-6-phosphate [2]): < 1e-05 s⁻¹
- self-cleavage kobs at 10000 uM GlcN6P (glucosamine-6-phosphate [3]): < 1e-05 s⁻¹

Variant: G37A U54C C70U
- self-cleavage kobs at 640 uM GlcN6P (glucosamine-6-phosphate [1]): 0.000626 ± 0.00016 s⁻¹
- self-cleavage kobs at 2500 uM GlcN6P (glucosamine-6-phosphate [2]): 0.00117 ± 0.00025 s⁻¹

Variant: A36G A39C U47G
- self-cleavage kobs at 640 uM GlcN6P (glucosamine-6-phosphate [1]): < 1e-05 s⁻¹
- self-cleavage kobs at 2500 uM GlcN6P (glucosamine-6-phosphate [2]): < 1e-05 s⁻¹
- self-cleavage kobs at 10000 uM GlcN6P (glucosamine-6-phosphate [3]): < 1e-05 s⁻¹

Variant: C61G A64G C71G
- self-cleavage kobs at 640 uM GlcN6P (glucosamine-6-phosphate [1]): 0.000141 ± 3.7e-05 s⁻¹

Variant: A15G C16A U30A A64G
- self-cleavage kobs at 640 uM GlcN6P (glucosamine-6-phosphate [1]): 0.000408 ± 0.00011 s⁻¹
- self-cleavage kobs at 2500 uM GlcN6P (glucosamine-6-phosphate [2]): 0.00162 ± 0.00041 s⁻¹

Variant: C10G G13C A39G
- self-cleavage kobs at 640 uM GlcN6P (glucosamine-6-phosphate [1]): < 1e-05 s⁻¹
- self-cleavage kobs at 2500 uM GlcN6P (glucosamine-6-phosphate [2]): < 1e-05 s⁻¹

Variant: G38A G62U G66C
- self-cleavage kobs at 640 uM GlcN6P (glucosamine-6-phosphate [1]): < 1e-05 s⁻¹

Variant: C10U A39C G41A U46A
- self-cleavage kobs at 640 uM GlcN6P (glucosamine-6-phosphate [1]): < 1e-05 s⁻¹
- self-cleavage kobs at 2500 uM GlcN6P (glucosamine-6-phosphate [2]): < 1e-05 s⁻¹

Variant: A6G G32U C61A
- self-cleavage kobs at 640 uM GlcN6P (glucosamine-6-phosphate [1]): < 1e-05 s⁻¹
- self-cleavage kobs at 2500 uM GlcN6P (glucosamine-6-phosphate [2]): < 1e-05 s⁻¹

Variant: G13C G37U G43C
- self-cleavage kobs at 640 uM GlcN6P (glucosamine-6-phosphate [1]): < 1e-05 s⁻¹
- self-cleavage kobs at 2500 uM GlcN6P (glucosamine-6-phosphate [2]): < 1e-05 s⁻¹

Variant: A39C U45A C68G
- self-cleavage kobs at 640 uM GlcN6P (glucosamine-6-phosphate [1]): < 1e-05 s⁻¹

Variant: U31C A53U C67U
- self-cleavage kobs at 640 uM GlcN6P (glucosamine-6-phosphate [1]): 0.000239 ± 6.6e-05 s⁻¹
- self-cleavage kobs at 2500 uM GlcN6P (glucosamine-6-phosphate [2]): 0.00045 ± 9.3e-05 s⁻¹

Variant: A15U U45C G66U C67G
- self-cleavage kobs at 640 uM GlcN6P (glucosamine-6-phosphate [1]): 7.69e-05 ± 2.9e-05 s⁻¹
- self-cleavage kobs at 2500 uM GlcN6P (glucosamine-6-phosphate [2]): 0.000193 ± 5.8e-05 s⁻¹

Variant: A6G G37A U46A U54A
- self-cleavage kobs at 640 uM GlcN6P (glucosamine-6-phosphate [1]): < 1e-05 s⁻¹
- self-cleavage kobs at 10000 uM GlcN6P (glucosamine-6-phosphate [3]): < 1e-05 s⁻¹

Variant: G7A G9U G13U A48C
- self-cleavage kobs at 640 uM GlcN6P (glucosamine-6-phosphate [1]): < 1e-05 s⁻¹

Variant: A12U A48C C58A
- self-cleavage kobs at 640 uM GlcN6P (glucosamine-6-phosphate [1]): < 1e-05 s⁻¹
- self-cleavage kobs at 2500 uM GlcN6P (glucosamine-6-phosphate [2]): < 1e-05 s⁻¹

Variant: A15G U45C U57C
- self-cleavage kobs at 640 uM GlcN6P (glucosamine-6-phosphate [1]): < 1e-05 s⁻¹

Variant: G40U U47C A53C U54A
- self-cleavage kobs at 640 uM GlcN6P (glucosamine-6-phosphate [1]): 7.34e-05 ± 2.8e-05 s⁻¹
- self-cleavage kobs at 2500 uM GlcN6P (glucosamine-6-phosphate [2]): 0.000202 ± 3.7e-05 s⁻¹

Variant: A12G A48U G63U
- self-cleavage kobs at 640 uM GlcN6P (glucosamine-6-phosphate [1]): < 1e-05 s⁻¹

Variant: G29A G38C C70A
- self-cleavage kobs at 640 uM GlcN6P (glucosamine-6-phosphate [1]): 6.65e-05 ± 3.1e-05 s⁻¹

Variant: C19A A48U
- self-cleavage kobs at 640 uM GlcN6P (glucosamine-6-phosphate [1]): 6.44e-05 ± 2.3e-05 s⁻¹

Variant: G7C G9C A36G G51C
- self-cleavage kobs at 640 uM GlcN6P (glucosamine-6-phosphate [1]): < 1e-05 s⁻¹

Variant: C11A G38U A39U G60A
- self-cleavage kobs at 640 uM GlcN6P (glucosamine-6-phosphate [1]): < 1e-05 s⁻¹
- self-cleavage kobs at 2500 uM GlcN6P (glucosamine-6-phosphate [2]): < 1e-05 s⁻¹

Variant: C10U G35C G60A
- self-cleavage kobs at 640 uM GlcN6P (glucosamine-6-phosphate [1]): < 1e-05 s⁻¹
- self-cleavage kobs at 2500 uM GlcN6P (glucosamine-6-phosphate [2]): < 1e-05 s⁻¹

Variant: C10U G38U U57G C61G G66U
- self-cleavage kobs at 640 uM GlcN6P (glucosamine-6-phosphate [1]): 0.000307 ± 9.3e-05 s⁻¹

Variant: U49C U65C U69A
- self-cleavage kobs at 640 uM GlcN6P (glucosamine-6-phosphate [1]): < 1e-05 s⁻¹
- self-cleavage kobs at 2500 uM GlcN6P (glucosamine-6-phosphate [2]): < 1e-05 s⁻¹

Variant: C8A U55G A64U
- self-cleavage kobs at 640 uM GlcN6P (glucosamine-6-phosphate [1]): < 1e-05 s⁻¹
- self-cleavage kobs at 2500 uM GlcN6P (glucosamine-6-phosphate [2]): < 1e-05 s⁻¹

Variant: G40U U65G
- self-cleavage kobs at 640 uM GlcN6P (glucosamine-6-phosphate [1]): 0.000417 ± 0.00014 s⁻¹
- self-cleavage kobs at 2500 uM GlcN6P (glucosamine-6-phosphate [2]): 0.00108 ± 0.00028 s⁻¹
- self-cleavage kobs at 10000 uM GlcN6P (glucosamine-6-phosphate [3]): 0.0019 ± 0.00044 s⁻¹

Variant: G7C C34A A42C C71U
- self-cleavage kobs at 640 uM GlcN6P (glucosamine-6-phosphate [1]): < 1e-05 s⁻¹

Variant: A6C U30A C67G
- self-cleavage kobs at 640 uM GlcN6P (glucosamine-6-phosphate [1]): < 1e-05 s⁻¹

Variant: G35A G37A U46A G51C G59U
- self-cleavage kobs at 640 uM GlcN6P (glucosamine-6-phosphate [1]): < 1e-05 s⁻¹
- self-cleavage kobs at 2500 uM GlcN6P (glucosamine-6-phosphate [2]): < 1e-05 s⁻¹
